In patent US20170023548:

Target: T1, hATP11C-GFP (human ATP11C tagged with GFP at the C-terminus), Q8NB49
T1 chain: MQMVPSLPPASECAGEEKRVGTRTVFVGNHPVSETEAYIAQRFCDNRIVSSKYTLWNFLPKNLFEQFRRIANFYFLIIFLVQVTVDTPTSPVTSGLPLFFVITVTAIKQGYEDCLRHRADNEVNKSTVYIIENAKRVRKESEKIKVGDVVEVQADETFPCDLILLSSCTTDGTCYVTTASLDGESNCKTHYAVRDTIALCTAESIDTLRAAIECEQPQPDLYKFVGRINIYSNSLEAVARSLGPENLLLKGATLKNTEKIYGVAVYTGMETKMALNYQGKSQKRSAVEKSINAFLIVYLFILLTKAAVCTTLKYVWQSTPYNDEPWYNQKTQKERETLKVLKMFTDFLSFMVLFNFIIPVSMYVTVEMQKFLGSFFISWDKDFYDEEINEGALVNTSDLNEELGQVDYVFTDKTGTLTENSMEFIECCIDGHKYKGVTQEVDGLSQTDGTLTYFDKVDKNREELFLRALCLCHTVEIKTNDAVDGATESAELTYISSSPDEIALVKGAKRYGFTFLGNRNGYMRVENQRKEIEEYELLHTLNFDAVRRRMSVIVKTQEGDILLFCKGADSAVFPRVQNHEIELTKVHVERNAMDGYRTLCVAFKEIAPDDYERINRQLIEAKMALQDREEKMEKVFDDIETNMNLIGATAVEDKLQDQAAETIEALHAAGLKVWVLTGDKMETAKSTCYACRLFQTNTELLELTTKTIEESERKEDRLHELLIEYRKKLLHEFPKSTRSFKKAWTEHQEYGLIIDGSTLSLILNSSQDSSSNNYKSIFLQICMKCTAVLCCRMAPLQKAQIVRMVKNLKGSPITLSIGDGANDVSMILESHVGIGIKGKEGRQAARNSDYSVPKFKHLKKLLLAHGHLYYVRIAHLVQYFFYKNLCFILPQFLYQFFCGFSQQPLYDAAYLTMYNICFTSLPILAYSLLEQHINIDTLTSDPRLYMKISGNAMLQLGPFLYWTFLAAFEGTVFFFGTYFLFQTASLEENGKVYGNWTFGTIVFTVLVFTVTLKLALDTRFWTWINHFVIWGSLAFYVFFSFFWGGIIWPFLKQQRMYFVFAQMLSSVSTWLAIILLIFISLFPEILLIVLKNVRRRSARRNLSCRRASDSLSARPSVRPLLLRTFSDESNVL

B1: recombinant human caspase-6 (Biovision) (protein)
chain: AFYKREMFDPAEKYKMDHRRRGIALIFNHERFFWHLTLPERRGTCADRDNLTRRFSDLGFEVKCFNDLKAEELLLKIHEVSTVSHADADCFVCVFLSHGEGNHIYAYDAKIEIQTLTGLFKGDKCHSLVGKPKIFIIQACRGNQHDVPVIPLDVVDNQTEKLDTNITEVDAASVYTLPAGADFLMCYSVAEGYYSHRETVNGSWYIQDLCEMLGKYGSSLEFTELLTLVNRKVSQRRVDFCKDPSAIGKKQVPCFASMLTKKLHFFPKSN
cleavage of hATP11C-GFP in solubilized membrane fraction, Western blotting with anti-GFP: hATP11C was cleaved by caspase-3, -6 and -7

B2: recombinant human caspase-3 (Biovision) (protein)
chain: SGISLDNSYKMDYPEMGLCIIINNKNFHKSTGMTSRSGTDVDAANLRETFRNLKYEVRNKNDLTREEIVELMRDVSKEDHSKRSSFVCVLLSHGEEGIIFGTNGPVDLKKITNFFRGDRCRSLTGKPKLFIIQACRGTELDCGIETDSGVDDDMACHKIPVEADFLYAYSTAPGYYSWRNSKDGSWFIQSLCAMLKQYADKLEFMHILTRVNRKVATEFESFSFDATFHAKKQIPCIVSMLTKELYFYH
cleavage of hATP11C-GFP in solubilized membrane fraction, Western blotting with anti-GFP: hATP11C was cleaved by caspase-3, -6 and -7

B3: recombinant human caspase-7 (Biovision) (protein)
chain: AKPDRSSFVPSLFSKKKKNVTMRSIKTTRDRVPTYQYNMNFEKLGKCIIINNKNFDKVTGMGVRNGTDKDAEALFKCFRSLGFDVIVYNDCSCAKMQDLLKKASEEDHTNAACFACILLSHGEENVIYGKDGVTPIKDLTAHFRGDRCKTLLEKPKLFFIQACRGTELDDGIQADSGPINDTDANPRYKIPVEADFLFAYSTVPGYYSWRSPGRGSWFVQALCSILEEHGKDLEIMQILTRVNDRVARHFESQSDDPHFHEKKQIPCVVSMLTKELYFSQ
cleavage of hATP11C-GFP in solubilized membrane fraction, Western blotting with anti-GFP: hATP11C was cleaved by caspase-3, -6 and -7
